Literature values in PMC10886550.

What was measured:
[1] = biological target: DNA gyrase (Escherichia coli) (UniProt P0AES4)
GyrB (Escherichia coli) = GyrB (Escherichia coli) (UniProt P0AES6)

UniProt P0AES4, sequence (P0AES4 2-875): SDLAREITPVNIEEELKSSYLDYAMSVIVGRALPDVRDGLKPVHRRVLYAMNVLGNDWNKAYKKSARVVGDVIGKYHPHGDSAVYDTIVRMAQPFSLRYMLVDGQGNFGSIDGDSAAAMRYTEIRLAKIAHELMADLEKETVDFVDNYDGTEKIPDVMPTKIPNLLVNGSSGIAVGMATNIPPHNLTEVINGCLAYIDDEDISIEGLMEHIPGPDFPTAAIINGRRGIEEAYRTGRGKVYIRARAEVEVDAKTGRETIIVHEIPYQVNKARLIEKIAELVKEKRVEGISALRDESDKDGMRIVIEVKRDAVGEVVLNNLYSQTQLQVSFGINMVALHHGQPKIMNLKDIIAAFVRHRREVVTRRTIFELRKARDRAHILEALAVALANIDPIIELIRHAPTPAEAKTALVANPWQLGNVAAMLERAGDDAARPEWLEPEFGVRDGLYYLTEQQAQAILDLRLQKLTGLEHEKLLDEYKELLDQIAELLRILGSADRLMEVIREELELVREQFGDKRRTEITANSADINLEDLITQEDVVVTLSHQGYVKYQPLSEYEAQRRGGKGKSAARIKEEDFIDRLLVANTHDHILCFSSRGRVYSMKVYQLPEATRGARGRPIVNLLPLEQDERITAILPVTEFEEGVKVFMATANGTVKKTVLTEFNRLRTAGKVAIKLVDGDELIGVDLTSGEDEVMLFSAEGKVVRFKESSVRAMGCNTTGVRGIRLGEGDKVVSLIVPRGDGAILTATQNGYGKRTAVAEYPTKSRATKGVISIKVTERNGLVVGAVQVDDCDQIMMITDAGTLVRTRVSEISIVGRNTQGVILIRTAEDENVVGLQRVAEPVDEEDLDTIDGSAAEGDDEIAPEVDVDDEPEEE

| Substance | Kd [1] | Kd (GyrB (Escherichia coli)) |
| --- | --- | --- |
| GyrI peptide 33-48 (from UniProt P33012) | 26 µM | – |
| YacG (from UniProt P0A8H8) | – | 0.35 µM |
